Test in all cases: cell-based or functional assay
In one experiment the target is T1, VPAC2.
T1 sequence (P41587 whole entry, species assumed, looked up): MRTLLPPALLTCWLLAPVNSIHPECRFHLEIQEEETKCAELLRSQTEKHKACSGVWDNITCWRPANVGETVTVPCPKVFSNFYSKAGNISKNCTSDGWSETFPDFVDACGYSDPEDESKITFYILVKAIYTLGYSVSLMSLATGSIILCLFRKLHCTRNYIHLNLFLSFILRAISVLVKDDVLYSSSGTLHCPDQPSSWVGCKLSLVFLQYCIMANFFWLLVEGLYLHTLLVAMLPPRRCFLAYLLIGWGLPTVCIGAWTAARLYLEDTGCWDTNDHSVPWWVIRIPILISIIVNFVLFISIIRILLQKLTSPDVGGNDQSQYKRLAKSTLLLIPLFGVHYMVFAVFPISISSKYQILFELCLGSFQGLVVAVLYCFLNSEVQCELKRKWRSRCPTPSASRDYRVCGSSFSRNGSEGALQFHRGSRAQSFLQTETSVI

Another experiment deals with T2, VPAC1.
T2 sequence (P32241 whole entry, species assumed, looked up): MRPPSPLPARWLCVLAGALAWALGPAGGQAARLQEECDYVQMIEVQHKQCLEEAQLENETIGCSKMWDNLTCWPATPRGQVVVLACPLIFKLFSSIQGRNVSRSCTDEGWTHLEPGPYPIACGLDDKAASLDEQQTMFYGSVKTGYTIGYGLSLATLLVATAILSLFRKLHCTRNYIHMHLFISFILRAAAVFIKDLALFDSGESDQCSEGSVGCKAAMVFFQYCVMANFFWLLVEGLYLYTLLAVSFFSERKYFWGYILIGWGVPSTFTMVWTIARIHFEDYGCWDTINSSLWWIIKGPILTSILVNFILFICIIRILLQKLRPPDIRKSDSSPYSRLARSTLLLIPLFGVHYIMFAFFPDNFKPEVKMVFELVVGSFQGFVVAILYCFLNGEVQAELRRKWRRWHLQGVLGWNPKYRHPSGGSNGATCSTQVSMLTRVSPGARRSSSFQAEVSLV

The target in experiment [1] is human pituitary adenylate cyclase-activating polypeptide type I receptor (human) (UniProt P41586).
human pituitary adenylate cyclase-activating polypeptide type I receptor (human), sequence (P41586 21-468): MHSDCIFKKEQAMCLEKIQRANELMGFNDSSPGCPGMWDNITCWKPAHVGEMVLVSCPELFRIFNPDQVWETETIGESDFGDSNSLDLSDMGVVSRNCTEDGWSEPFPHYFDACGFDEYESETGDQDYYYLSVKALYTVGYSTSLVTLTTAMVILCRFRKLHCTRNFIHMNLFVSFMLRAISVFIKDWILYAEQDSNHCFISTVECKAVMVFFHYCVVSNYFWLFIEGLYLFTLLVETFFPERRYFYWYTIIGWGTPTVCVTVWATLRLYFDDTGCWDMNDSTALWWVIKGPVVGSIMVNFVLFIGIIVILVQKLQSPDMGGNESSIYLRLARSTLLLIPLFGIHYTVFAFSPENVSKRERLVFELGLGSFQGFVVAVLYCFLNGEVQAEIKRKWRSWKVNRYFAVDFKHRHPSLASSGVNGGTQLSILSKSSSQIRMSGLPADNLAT

The values that follow come from patent publication US20180362645A1.

Maxadilan, sequence (P30659 24-84 limits assumed): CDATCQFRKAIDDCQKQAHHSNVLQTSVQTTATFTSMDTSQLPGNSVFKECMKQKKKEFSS

“Maxadilan (from UniProt P30659 24-84) (ligand)”: the VPAC2 EC50 (agonist activity) with VPAC2 was greater than 1000 nM. Also, in the experiment with VPAC1, the VPAC1 EC50 (agonist activity) was greater than 1000 nM. The substance further came in with a PAC1 EC50 (agonist activity) in experiment [1] of 0.06 nM.
